# Ends that are not written are not given here.
# Assays:
# [1] = Pharmacokinetic profiles of PEGylated peptides, plasma peptide by RIA; type: in vivo, Fisher 344 rats; conditions: Fisher 344 rats, 100 μg compound/kg, plasma RIA, mean N = 3
# Description: Pharmacokinetic profiles of PEGylated peptides. Healthy Fisher 344 rats (3 animals per group) are injected with 100 μg compound/kg (compound amount based on peptide content and dissolved in PBS buffer). […] PK parameters are then calculated using a model-independent method (WinNonlin Pro, Pharsight Corp., Mountain View, Calif., USA).
# [2] = target: T1, human PAC1 (Homo sapiens, UniProt P41586); assay: Filter binding assay, membranes from cells transiently transfected with human PAC1, 125I-labeled PACAP-27 tracer; conditions: read-out: Human receptor binding (IC50; nM) PAC1
# T1 construct: expressed in transfected cells
# T1 sequence (P41586 21-468): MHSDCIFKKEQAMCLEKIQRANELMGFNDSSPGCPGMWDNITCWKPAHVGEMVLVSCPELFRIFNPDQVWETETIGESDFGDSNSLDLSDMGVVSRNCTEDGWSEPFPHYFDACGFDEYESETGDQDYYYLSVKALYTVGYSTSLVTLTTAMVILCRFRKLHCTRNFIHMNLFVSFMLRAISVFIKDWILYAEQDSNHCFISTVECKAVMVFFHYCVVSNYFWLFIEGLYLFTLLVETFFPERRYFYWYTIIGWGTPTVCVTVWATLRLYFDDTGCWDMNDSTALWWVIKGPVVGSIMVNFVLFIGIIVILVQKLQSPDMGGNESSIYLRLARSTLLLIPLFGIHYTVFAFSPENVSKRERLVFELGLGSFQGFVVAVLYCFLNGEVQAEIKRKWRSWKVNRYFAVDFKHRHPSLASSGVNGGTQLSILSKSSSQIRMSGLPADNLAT
# Description: (§1) For this assay, the solutions and equipment include:
# (§2) Presoak solution: 0.5% Polyethyleneamine in Aqua dest.
# (§3) Buffer for flushing filter plates: 25 mM HEPES pH 7.4
# (§4) Blocking buffer: 25 mM HEPES pH 7.4; 0.2% protease free BSA
# (§5) Assay buffer: 25 mM HEPES pH 7.4; 0.5% protease free BSA
# (§6) Dilution and assay plate: PS-Microplate, U form
# (§7) Filtration Plate Multiscreen FB Opaque Plate; […] Type B Glasfiber filter
# (§8) In order to prepare the filter plates, the presoak solution is aspirated by vacuum filtration. The plates are flushed twice with 200 μL flush buffer. 200 μL blocking buffer is added to the filter plate. The filter plate is then incubated with 200 μL presoak solution for 1 hour at room temperature.
# (§9) The assay plate is filled with […] (2.5 μg) suspended in assay buffer, 25 μL compound (agonist) in assay buffer, and 25 μL tracer (about 40000 cpm) in assay buffer. The filled plate is incubated for 1 hour with shaking.
# (§10) The transfer from assay plate to filter plate is conducted. The blocking buffer is aspirated by vacuum filtration and washed two times with flush buffer. 90 μL is transferred from the assay plate to the filter plate. The 90 μL transferred from assay plate is aspirated and washed three times with 200 μL flush buffer. The plastic support is removed. It is dried for 1 hour at 60° C. 30 μL Microscint is added. The count is performed.
# (§11) Values reported are single results or the mean of two or more independent runs.
# [3] = target: T2, human VPAC2 (Homo sapiens, UniProt P41587); assay: Filter binding assay, membranes from stable VPAC2 cell line, 125I-labeled VIP tracer; conditions: read-out: Human receptor binding (IC50; nM) VPAC2
# T2 construct: expressed in transfected cells
# T2 sequence (P41587 24-438): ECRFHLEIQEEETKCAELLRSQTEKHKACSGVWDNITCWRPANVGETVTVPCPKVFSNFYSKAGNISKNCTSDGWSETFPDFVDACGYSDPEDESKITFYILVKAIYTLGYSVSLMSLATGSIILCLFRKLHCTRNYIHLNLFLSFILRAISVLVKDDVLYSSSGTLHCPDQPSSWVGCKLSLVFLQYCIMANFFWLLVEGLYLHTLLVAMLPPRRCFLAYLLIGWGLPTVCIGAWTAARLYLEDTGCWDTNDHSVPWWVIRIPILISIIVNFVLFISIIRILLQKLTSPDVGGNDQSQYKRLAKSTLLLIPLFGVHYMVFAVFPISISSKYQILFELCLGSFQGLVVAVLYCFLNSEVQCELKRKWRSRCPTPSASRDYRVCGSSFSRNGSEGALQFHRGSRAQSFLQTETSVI
# Description: as §1, §2, §3, §4, §5, §6, §7, §8, §9, §10, §11
# [4] = target: T3, rat VPAC1 receptor (Rattus norvegicus, UniProt P30083); assay: Rat VPAC1 in vitro potency (cAMP generation, DiscoveRx) in transiently transfected CHO-PO cells; type: cell-based; conditions: CHO-PO cells transiently transfected with rat VPAC1; read-out: rVPAC1 in vitro potency (cAMP generation) EC50
# T3 construct: expressed in transfected cells; host or cells: CHO-PO cells, transient
# T3 sequence (P30083 31-459): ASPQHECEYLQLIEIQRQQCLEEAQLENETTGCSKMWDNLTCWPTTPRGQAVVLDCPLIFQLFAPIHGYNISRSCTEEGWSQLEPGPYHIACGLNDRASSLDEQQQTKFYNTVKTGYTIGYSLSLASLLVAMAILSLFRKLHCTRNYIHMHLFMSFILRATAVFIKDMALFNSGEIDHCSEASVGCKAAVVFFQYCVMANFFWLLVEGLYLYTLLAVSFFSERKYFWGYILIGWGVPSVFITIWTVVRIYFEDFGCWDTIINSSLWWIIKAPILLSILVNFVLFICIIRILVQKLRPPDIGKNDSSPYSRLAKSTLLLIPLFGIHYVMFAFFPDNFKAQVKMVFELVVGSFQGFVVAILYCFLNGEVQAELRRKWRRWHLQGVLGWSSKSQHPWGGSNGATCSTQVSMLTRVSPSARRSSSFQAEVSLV
# Description: Rat receptor selectivity is estimated by comparing functional potency (cAMP generation) in CHO-PO cells transiently expressing rat VPAC1 or rat VPAC2 receptors. CHO-PO cells transiently expressing rat VPAC1 or VPAC2, are seeded with 10,000 cells/well three days before the assay. The cells are kept in 200 μL culture medium. […] The stimuli are present for 30 minutes. The assay buffer is then gently removed.
Substance,AUC0-last [1],Cl/F [1],Cmax [1],Tmax [1],T½ [1],IC50 [2],IC50 [3],EC50 [4]
C6-HSDAVFTEQY(OMe)TOrnLRAibQVAK(CO(CH2)2SPEG40K)AibOrnYLQSIOrnOrnGGPSSGAPPPS-NH2 (HSDAVFTEQYTXLRXQVAXXXYLQSIXXGGPSSGAPPPS; non-natural residues) [Agonist P432],21471 ng·h/mL,0.083 mL/min/kg,392 ng/mL,16 h,35 h,> 25000 nM,130 nM,> 100 nM
C6-HSDAVFTDNYTOrnLRAibQVAAAibKYLQC(PEG40K)IOrnNOrnGGPSSGAPPPS (HSDAVFTDNYTXLRXQVAAXKYLQCIXNXGGPSSGAPPPS; non-natural residues) [Agonist P373],10803 ng·h/mL,0.167 mL/min/kg,240 ng/mL,13 h,31 h,> 25000 nM,111 nM,350 nM
C6-HDAVFTEQY(OMe)TOrnLRAibQVAAAibOrnYLQSIOrnOrnGGPSSGAPPPC(PEG60K)-NH2 [Agonist P404],6070 ng·h/mL,0.283 mL/min/kg,133 ng/mL,20 h,23 h,> 25000 nM,13.1 nM,23.4 nM
"P137: PEGylated material obtained from P120 and methoxy-PEG2-MAL-40K (HSDAVFTDNYTRLRKQVAAKKYLQSIKNKRYGGPSSGAPPPC; also: PEGylated with methoxy-PEG2-MAL-40K, site not given here) [Agonist P137]",–,–,–,–,–,> 25000 nM,0.64 nM,29.7 nM
